Biological target: T1, MBP-WWP2 (UniProt O00308 1-870)
T1 construct: WWP2; also called bacterially purified WWP2; source: bacterially expressed; bacterially purified (methods, results) or bacterial cell lysate
Assay: pull-down; GST, GST-p73 or GST-ΔNp73 on glutathione-Sepharose beads incubated with MBP-WWP2 for 1 h at 4°C; immunoblot with MBP antibody
Details: both partners purified

T1 sequence (O00308 whole entry): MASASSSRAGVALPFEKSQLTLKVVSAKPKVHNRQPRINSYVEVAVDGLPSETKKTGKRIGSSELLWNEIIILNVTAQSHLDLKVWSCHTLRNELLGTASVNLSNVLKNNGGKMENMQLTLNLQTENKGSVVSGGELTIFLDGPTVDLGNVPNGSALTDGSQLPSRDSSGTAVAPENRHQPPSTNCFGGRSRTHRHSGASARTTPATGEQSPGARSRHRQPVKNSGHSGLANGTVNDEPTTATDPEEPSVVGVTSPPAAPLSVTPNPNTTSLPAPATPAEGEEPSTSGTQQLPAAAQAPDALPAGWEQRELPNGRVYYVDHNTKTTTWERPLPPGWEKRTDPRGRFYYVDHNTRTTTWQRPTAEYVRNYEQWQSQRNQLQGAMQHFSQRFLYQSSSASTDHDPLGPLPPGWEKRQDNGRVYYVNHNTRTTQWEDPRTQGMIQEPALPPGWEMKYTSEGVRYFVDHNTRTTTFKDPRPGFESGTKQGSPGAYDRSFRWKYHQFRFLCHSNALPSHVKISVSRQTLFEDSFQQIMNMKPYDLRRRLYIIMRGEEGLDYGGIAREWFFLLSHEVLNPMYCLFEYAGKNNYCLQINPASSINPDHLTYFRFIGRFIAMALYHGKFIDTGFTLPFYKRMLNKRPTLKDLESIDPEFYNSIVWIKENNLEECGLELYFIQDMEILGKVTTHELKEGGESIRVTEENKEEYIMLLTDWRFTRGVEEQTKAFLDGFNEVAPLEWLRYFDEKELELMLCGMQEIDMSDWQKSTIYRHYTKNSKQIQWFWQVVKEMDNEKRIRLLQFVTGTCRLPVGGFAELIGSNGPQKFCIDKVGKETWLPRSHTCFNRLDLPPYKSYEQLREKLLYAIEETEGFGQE

| binding result | Binder |
| --- | --- |
| binds | GST-p73 (natural protein, UniProt O15350 1-636, looked up, also called glutathione S-transferase (GST)–p73) MAQSTATSPDGGTTFEHLWSSLEPDSTYFDLPQSSRGNNEVVGGTDSSMDVFHLEGMTTSVMAQFNLLSSTMDQMSSRAASASPYTPEHAASVPTHSPYAQPSSTFDTMSPAPVIPSNTDYPGPHHFEVTFQQSSTAKSATWTYSPLLKKLYCQIAKTCPIQIKVSTPPPPGTAIRAMPVYKKAEHVTDVVKRCPNHELGRDFNEGQSAPASHLIRVEGNNLSQYVDDPVTGRQSVVVPYEPPQVGTEFTTILYNFMCNSSCVGGMNRRPILIIITLEMRDGQVLGRRSFEGRICACPGRDRKADEDHYREQQALNESSAKNGAASKRAFKQSPPAVPALGAGVKKRRHGDEDTYYLQVRGRENFEILMKLKESLELMELVPQPLVDSYRQQQQLLQRPSHLQPPSYGPVLSPMNKVHGGMNKLPSVNQLVGQPPPHSSAATPNLGPVGPGMLNNHGHAVPANGEMSSSHSAQSMVSGSHCTPPPPYHADPSLVSFLTGLGCPNCIEYFTSQGLQSIYHLQNLTIEDLGALKIPEQYRMTIWRGLQDLKQGHDYSTAQQLLRSSNAATISIGGSGELQRQRVMEAVHFRVRHTITIPNRGGPGGGPDEWADFGFDLPDCKARKQPIKEEFTEAEIH |
| binds | GST-ΔNp73 (natural protein, UniProt O15350-8 1-587, looked up) MLYVGDPARHLATAQFNLLSSTMDQMSSRAASASPYTPEHAASVPTHSPYAQPSSTFDTMSPAPVIPSNTDYPGPHHFEVTFQQSSTAKSATWTYSPLLKKLYCQIAKTCPIQIKVSTPPPPGTAIRAMPVYKKAEHVTDVVKRCPNHELGRDFNEGQSAPASHLIRVEGNNLSQYVDDPVTGRQSVVVPYEPPQVGTEFTTILYNFMCNSSCVGGMNRRPILIIITLEMRDGQVLGRRSFEGRICACPGRDRKADEDHYREQQALNESSAKNGAASKRAFKQSPPAVPALGAGVKKRRHGDEDTYYLQVRGRENFEILMKLKESLELMELVPQPLVDSYRQQQQLLQRPSHLQPPSYGPVLSPMNKVHGGMNKLPSVNQLVGQPPPHSSAATPNLGPVGPGMLNNHGHAVPANGEMSSSHSAQSMVSGSHCTPPPPYHADPSLVSFLTGLGCPNCIEYFTSQGLQSIYHLQNLTIEDLGALKIPEQYRMTIWRGLQDLKQGHDYSTAQQLLRSSNAATISIGGSGELQRQRVMEAVHFRVRHTITIPNRGGPGGGPDEWADFGFDLPDCKARKQPIKEEFTEAEIH |

From PMC4187731, “WWP2-WWP1 Ubiquitin Ligase Complex Coordinated by PPM1G Maintains the Balance between Cellular p73 and ΔNp73 Levels” (Molecular and Cellular Biology, 2014)
